Data as given in US7718385B2, “Bioactivation of alkylating agents for cancer treatment” (priority 2003, dated 2010).

Substrate: CC1=C(CO)C2=C(C)C3(CC3)[C@@](C)(O)C(=O)C2=C1
Assay: purified protein, by the assay type
Conditions: other: formation of Product 8; 37.0 °C

B1: recombinant rat AOR (Rattus norvegicus; Q160G/Q263G/Q264G/Q276G) (protein)
chain: MVQAKTWTLKKHFEGFPTDSNFELRTTELPPLNNGEVLLEALFLSVDPYMRVAAKKLKEGDSMMGEQVARVVESKNSAFPTGTIVVALLGWTSHSISDGNGLRKLPAEWPDKLPLSLALGTVGMPGLTAYFGLLDICGLKGGETVLVNAAAGAVGSVVGGIAKLKGCKVVGTAGSDEKVAYLKKLGFDVAFNYKTVKSLEEALRTASPDGYDCYFDNVGGEFSNTVILQMKTFGRIAICGAISQYNRTGPCPPGPSPEVIIYGGLRMEGFIVTRWGGEVRQKALTDLMNWVSEGKIRYHEYITEGFEKMPAAFMGMLKGDNLGKTIVKA
- Km: 145 µM
- Vmax: 0.275 µmol/min/mg
